US20210024651A1 (published 2021)
Blank lines part the entries; values can stand above or below the binder they belong to.

Columns and labels:
[1] = biological target: T1, His-tagged FcγRIIIa (V158) (UniProt P08637 17-208); assay: BLI, His-tagged FcγRIIIa (V158) captured on HIS1K tips, antibody in solution
T1 construct: not shown: His tag
Experimental: Briefly, anti-Penta-HIS (HIS1K) coated biosensor tips (Pall ForteBio, USA) were used to capture His-tagged FcγRIIIa (V158) (270 nM) for 120 s. All measurements were performed at 25° C. with agitation at 1000 rpm. Association kinetic measurements for antigen binding were performed by incubating anti-HER3 antibodies at different concentrations (500 nM to 15.6 nM) for 60 s, followed by a 120 s dissociation time by transferring the biosensors into assay buffer (pH 7.2) containing wells. Sensograms were referenced for buffer effects and then fitted using the Octet QK384 user software (Pall ForteBio, USA). Kinetic responses were subjected to a global fitting using a one site binding model to obtain values for association (Kₒₙ), dissociation (Koff) rate constants and the equilibrium dissociation constant (KD). Only curves that could be reliably fitted with the software (R²>0.90) were included in the analysis.

mouse HER3 = biological target: T2, mouse HER3 (mouse, UniProt Q61526 20-641, limits assumed); assay: ELISA, plate-coated target, antibody titrated from 10 µg/ml
T2 construct: also called mouse homologue of HER3; M. musculus HER3
T2 sequence (Q61526 20-641 limits assumed): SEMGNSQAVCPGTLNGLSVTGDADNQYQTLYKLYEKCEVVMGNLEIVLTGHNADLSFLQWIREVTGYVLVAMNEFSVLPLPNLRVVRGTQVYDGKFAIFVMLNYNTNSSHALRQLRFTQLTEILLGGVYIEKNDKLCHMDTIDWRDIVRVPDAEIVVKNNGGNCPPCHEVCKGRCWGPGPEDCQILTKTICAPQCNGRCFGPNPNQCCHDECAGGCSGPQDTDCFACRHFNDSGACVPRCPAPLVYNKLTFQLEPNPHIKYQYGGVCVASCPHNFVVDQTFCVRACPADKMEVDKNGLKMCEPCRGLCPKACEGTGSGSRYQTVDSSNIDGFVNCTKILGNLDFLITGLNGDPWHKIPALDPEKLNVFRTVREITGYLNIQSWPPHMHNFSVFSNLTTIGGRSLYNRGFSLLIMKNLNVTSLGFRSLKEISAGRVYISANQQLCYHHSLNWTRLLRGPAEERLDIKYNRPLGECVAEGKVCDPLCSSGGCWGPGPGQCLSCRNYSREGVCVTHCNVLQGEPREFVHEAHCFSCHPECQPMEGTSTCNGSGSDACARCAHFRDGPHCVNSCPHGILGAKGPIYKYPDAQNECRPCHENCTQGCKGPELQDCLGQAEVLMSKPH

rat HER3 = biological target: T3, rat HER3 (rat, UniProt Q62799 20-643, limits assumed); assay: as above
T3 construct: also called rat homologue of HER3; R. norvegicus HER3
T3 sequence (Q62799 20-643 limits assumed): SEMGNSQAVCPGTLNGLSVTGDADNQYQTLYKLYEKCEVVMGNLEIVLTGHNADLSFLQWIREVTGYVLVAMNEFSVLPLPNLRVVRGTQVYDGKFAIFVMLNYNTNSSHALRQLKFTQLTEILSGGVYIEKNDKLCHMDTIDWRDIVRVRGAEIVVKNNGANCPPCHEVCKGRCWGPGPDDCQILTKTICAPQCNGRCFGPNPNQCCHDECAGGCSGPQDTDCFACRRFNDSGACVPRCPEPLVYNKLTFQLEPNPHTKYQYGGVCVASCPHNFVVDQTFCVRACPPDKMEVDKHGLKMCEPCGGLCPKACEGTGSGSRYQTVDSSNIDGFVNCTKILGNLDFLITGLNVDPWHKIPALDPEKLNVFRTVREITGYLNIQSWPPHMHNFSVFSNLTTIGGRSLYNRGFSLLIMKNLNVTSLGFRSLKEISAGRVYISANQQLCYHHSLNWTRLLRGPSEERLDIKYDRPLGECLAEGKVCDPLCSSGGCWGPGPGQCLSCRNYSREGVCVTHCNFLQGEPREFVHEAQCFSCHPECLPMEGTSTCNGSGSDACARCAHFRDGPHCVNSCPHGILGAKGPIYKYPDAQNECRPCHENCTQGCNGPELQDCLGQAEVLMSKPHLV

binding result [1]: binds
B1: Fc-modified anti-HER3 antibody clone 10D1 comprising GASD substitutions in CH2 region (antibody, human IgG1, kappa)
heavy: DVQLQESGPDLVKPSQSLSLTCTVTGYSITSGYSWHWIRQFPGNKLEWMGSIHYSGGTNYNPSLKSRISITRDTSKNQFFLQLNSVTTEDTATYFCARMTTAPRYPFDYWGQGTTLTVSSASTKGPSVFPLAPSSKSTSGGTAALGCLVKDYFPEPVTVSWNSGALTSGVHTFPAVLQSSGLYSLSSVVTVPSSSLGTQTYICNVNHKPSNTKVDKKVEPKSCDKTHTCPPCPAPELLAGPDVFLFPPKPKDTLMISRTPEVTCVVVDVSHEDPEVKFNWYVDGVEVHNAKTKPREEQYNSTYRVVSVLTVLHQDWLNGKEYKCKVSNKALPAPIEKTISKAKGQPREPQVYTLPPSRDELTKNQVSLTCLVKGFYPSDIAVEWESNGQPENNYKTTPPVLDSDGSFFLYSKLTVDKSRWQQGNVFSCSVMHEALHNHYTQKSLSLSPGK
light: DIVMTQSQKFMSTSVGDRVSVTCKASQIVGSNVAWYQQKPGQSPKPLIYSASYRYSGVPDRFTASGSGTDFTLTITNVQSEDLAEYFCQQYSSHPLTFGAGTKLELKRTVAAPSVFIFPPSDEQLKSGTASVVCLLNNFYPREAKVQWKVDNALQSGNSQESVTEQDSKDSTYSLSSTLTLSKADYEKHKVYACEVTHQGLSSPVTKSFNRGEC
notes: also called 10D1 GASD variant

binding result (mouse HER3): binds
binding result (rat HER3): binds
binding result [1]: binds
B2: anti-HER3 clone 10D1 IgG1 (antibody)
heavy: not shown
light: B1 light
notes: Mouse variable regions on human IgG1/kappa constant regions (chimeric); also called 10D1P; 10D1 (parental)

binding result (mouse HER3): binds
binding result (rat HER3): binds
B3: 10D1F.FcA (anti-HER3 clone 10D1_c89 IgG1) (antibody, V domains shown)
VH: QVQLQESGPGLVKPSQTLSLTCTVSGYSITSGYSWHWIRQHPGKGLEWIGSIRYSGGTDYNPSLKSLVTISADTSKNQFSLKLSSVTAADTAVYYCARMTTAPWYPFDYWGQGTTVTVSS
VL: DIQMTQSPSSVSASVGDRVTITCKASQIVGSNVAWYQQKPGKAPEPLIYSASYLYSGVPSRFSGSGSGTDFTLTISSLQPEDFATYYCQQYSSHPLTFGQGTKLEIKR
notes: also called 10D1F.A
